Experimental findings from PMC8673628 are described below.

Assay [1] has as its target Thioredoxin reductase from Sphingomonas sp. PAMC 26621 (SpTR) (Sphingomonas sp. PAMC 26621).
The target is the same in assay [2]. The experiment in a line: SEC; Superdex 200 10/300 GL gel filtration in buffer D (50 mM sodium phosphate, pH 7.2, 100 mM NaCl); molecular weight against a protein standard mix. In general terms: SEC sorts molecules by how far they enter the pores of the column.

In the case of SpTrx F26W mutant (natural protein), in assay [1], the Km of SpTR for SpTrx F26W as substrate, 4°C (DTNB reduction at 412 nm, 50 nM SpTR, 0.1-10 μM Trx) is 1.24 µM and the Km of SpTR for SpTrx F26W as substrate, 30°C (DTNB reduction at 412 nm, 50 nM SpTR, 0.1-10 μM Trx) is 0.66 µM. Take SpTrx F26A mutant (natural protein): in assay [1], the Km of SpTR for SpTrx F26A as substrate, 4°C (DTNB reduction at 412 nm, 50 nM SpTR, 0.1-10 μM Trx) came to 6.8 µM and the Km of SpTR for SpTrx F26A as substrate, 30°C (DTNB reduction at 412 nm, 50 nM SpTR, 0.1-10 μM Trx) came out at 6.41 µM.

For orientation: stoichiometry N means the number of molecules, sites or subunits per partner or assembly. In assay [2], “Thioredoxin reductase from Sphingomonas sp. PAMC 26621 (SpTR) (enzyme)” yielded a stoichiometry N of 2.

As for “Thioredoxin from the psychrophilic Arctic bacterium Sphingomonas sp. PAMC 26621 (SpTrx), wild type (natural protein)”, in assay [1], the Km of SpTR for SpTrx as substrate, 4°C (DTNB reduction at 412 nm, 50 nM SpTR, 0.1-10 μM Trx) was 1.1 µM and the Km of SpTR for SpTrx as substrate, 30°C (DTNB reduction at 412 nm, 50 nM SpTR, 0.1-10 μM Trx) came out at 0.63 µM. For the substance SpTrx F26Y mutant (natural protein), in assay [1], the Km of SpTR for SpTrx F26Y as substrate, 4°C (DTNB reduction at 412 nm, 50 nM SpTR, 0.1-10 μM Trx) amounted to 1.17 µM and the Km of SpTR for SpTrx F26Y as substrate, 30°C (DTNB reduction at 412 nm, 50 nM SpTR, 0.1-10 μM Trx) was 0.6 µM.
